# Results: article PMC9987799
# B1: Myc-PATL1(398–770) (domain or fragment)
# chain: KDPYANLMLQREKDWVSKIQMMQLQSTDPYLDDFYYQNYFEKLEKLSAAEEIQGDGPKKERTKLITPQVAKLEHAYKPVQFEGSLGKLTVSSVNNPRKMIDAVVTSRSEDDETKEKQVRDKRRKTLVIIEKTYSLLLDVEDYERRYLLSLEEERPALMDDRKHKICSMYDNLRGKLPGQERPSDDHFVQIMCIRKGKRMVARILPFLSTEQAADILMTTARNLPFLIKKDAQDEVLPCLLSPFSLLLYHLPSVSITSLLRQLMNLPQSAATPALSNPHLTAVLQNKFGLSLLLILLSRGEDLQSSDPATESTQNNQWTEVMFMATRELLRIPQAALAKPISIPTNLVSLFSRYVDRQKLNLLETKLQLVQGIR
# B2: mCh-NLS-XRN1(1232–1706) (domain or fragment)
# chain: EFCNIWQSLQGSGKMQYFQPTIQEKGAVLPQEISQVNQHHKSGFNDNSVKYQQRKHDPHRKFKEECKSPKAECWSQKMSNKQPNSGIENFLASLNISKENEVQSSHHGEPPSEEHLSPQSFAMGTRMLKEILKIDGSNTVDHKNEIKQIANEIPVSSNRRDEYGLPSQPKQNKKLASYMNKPHSANEYHNVQSMDNMCWPAPSQIPPVSTPVTELSRICSLVGMPQPDFSFLRMPQTMTVCQVKLSNGLLVHGPQCHSENEAKEKAALFALQQLGSLGMNFPLPSQVFANYPSAVPPGTIPPAFPPPTGWDHYGSNYALGAANIMPSSSHLFGSMPWGPSVPVPGKPFHHTLYSGTMPMAGGIPGGVHNQFIPLQVTKKRVANKKNFENKEAQSSQATPVQTSQPDSSNIVKVSPRESSSASLKSSPIAQPASSFQVETASQGHSISHHKSTPISSSRRKSRKLAVNFGVSKPSE
# B3: CCHCR1-Myc (natural protein)
# chain: MFPPSGSTGLIPPSHFQARPLSTLPRMAPTWLSDIPLVQPPGHQDVSERRLDTQRPQVTMWERDVSSDRQEPGRRGRSWGLEGSQALSQQAEVIVRQLQELRRLEEEVRLLRETSLQQKMRLEAQAMELEALARAEKAGRAEAEGLRAALAGAEVVRKNLEEGSQRELEEVQRLHQEQLSSLTQAHEEALSSLTSKAEGLEKSLSSLETRRAGEAKELAEAQREAELLRKQLSKTQEDLEAQVTLVENLRKYVGEQVPSEVHSQTWELERQKLLETMQHLQEDRDSLHATAELLQVRVQSLTHILALQEEELTRKVQPSDSLEPEFTRKCQSLLNRWREKVFALMVQLKAQELEHSDSVKQLKGQVASLQEKVTSQSQEQAILQRSLQDKAAEVEVERMGAKGLQLELSRAQEARRRWQQQTASAEEQLRLVVNAVSSSQIWLETTMAKVEGAAAQLPSLNNRLSYAVRKVHTIRGLIARKLALAQLRQESCPLPPPVTDVSLELQQLREERNRLDAELQLSARLIQQEVGRAREQGEAERQQLSKVAQQLEQELQQTQESLASLGLQLEVARQGQQESTEEAASLRQELTQQQELYGQALQEKVAEVETRLREQLSDTERRLNEARREHAKAVVSLRQIQRRAAQEKERSQELRRLQEEARKEEGQRLARRLQELERDKNLMLATLQQEGLLSRYKQQRLLTVLPSLLDKKKSVVSSPRPPECSASAPVAAAVPTRESIKGSLSVLLDDLQDLSEAISKEEAVCQGDNLDRCSSSNPQMSS
# Key:
# Test in all cases: two-hybrid; fluorescence-based mammalian two-hybrid: bait EDC4 (or a fragment) fused to the SV40 NLS forms nuclear dots in transfected HEp-2 cells; prey scored by immunofluorescence for co-localisation in nuclear dots 24 h after transfection; three transfections, at least 30 cells each, mean +/- …
# [1] = molecular target: NLS-EDC4 (full-length EDC4, amino acids 1–1437, fused to the NLS of SV40 T antigen)
# [2] = molecular target: NLS-EDC4 (full-length EDC4, amino acids 1–1437, fused to the NLS of SV40 T antigen); remark: listed apart in the source
# [3] = molecular target: GFP-NLS-EDC4(935–1437)
molecule,measurement,setting,value
NLS-LSm14a (SV40 T antigen NLS fused to LSm14a) (from UniProt Q8ND56 1-463) (natural protein),percent of cells with both proteins in the nucleus that had the two in nuclear dots,[1],86%
B1,percent of cells expressing both proteins with the two co-localized in nuclear dots,[2],97%
B2,percent of cells expressing both proteins with both in nuclear dots,[2],94%
B3,percent of cells expressing both proteins with the two co-localized in nuclear dots,[3],96%
